Reference: patent US20130216476A1 (LFB BIOTECHNOLOGIES, priority 2010, published 2013)
Each block holds one compound with its values, some of them ahead of it.

What was measured:
[1] = target: CD71 antigen (transferrin receptor) on the surface of ARH-77 myeloma cells (UniProt P02786); assay: QIFIKIT indirect immunofluorescence, flow cytometry on ARH-77 cells, control antibody at 5 µg/ml, anti-mouse IgG-FITC
[2] = target: CD71 antigen (transferrin receptor) on the surface of ARH-77 myeloma cells (UniProt P02786); assay: QIFIKIT indirect immunofluorescence, flow cytometry on ARH-77 cells, control antibody at 5 µg/ml; BAE is background non-specific binding capacity
[3] = target: CD71 antigen (transferrin receptor) on the surface of ARH-77 myeloma cells (UniProt P02786); assay: flow cytometry on ARH-77 cells, control antibody at 10 µg/ml, anti-mouse IgG-PE
[4] = system: ARH-77 tumour cells; assay: Survival of SCID mice bearing ARH-77 tumour cells, anti-CD71 antibody with or without Velcade, section 3.2 (FIG. 3); type: in vivo
Experimental: The injection was carried out between 24 to 72 hours after whole-body exposure of the mice to gamma radiation (1.8 Gy, ^60Co, INRA, Dijon, France).
The day of injection of tumour cells is considered as day 0 (D0). […] The treatment with Velcade® commences on day 4 and therefore takes place on days D4, D7, D11, D14, D18, D25, D28 and D32.
The 40 mice are separated into 5 groups.
The injection volume of Velcade® (10 ml/kg) is adjusted to the […] of the individual animals.
The mice surviving the experiment were sacrificed after 144 days following the injection of tumour cells. An autopsy was carried out on all the mice found dead or sacrificed during the experiment due to the presence of one of the pathological signs specified in the above section.
Table 5 below compares the average survival of the mice in the 5 groups which died or were sacrificed before the end of the experiment due to the presence of the pathological signs specified above.

Chain of UniProt P02786 (P02786 whole entry): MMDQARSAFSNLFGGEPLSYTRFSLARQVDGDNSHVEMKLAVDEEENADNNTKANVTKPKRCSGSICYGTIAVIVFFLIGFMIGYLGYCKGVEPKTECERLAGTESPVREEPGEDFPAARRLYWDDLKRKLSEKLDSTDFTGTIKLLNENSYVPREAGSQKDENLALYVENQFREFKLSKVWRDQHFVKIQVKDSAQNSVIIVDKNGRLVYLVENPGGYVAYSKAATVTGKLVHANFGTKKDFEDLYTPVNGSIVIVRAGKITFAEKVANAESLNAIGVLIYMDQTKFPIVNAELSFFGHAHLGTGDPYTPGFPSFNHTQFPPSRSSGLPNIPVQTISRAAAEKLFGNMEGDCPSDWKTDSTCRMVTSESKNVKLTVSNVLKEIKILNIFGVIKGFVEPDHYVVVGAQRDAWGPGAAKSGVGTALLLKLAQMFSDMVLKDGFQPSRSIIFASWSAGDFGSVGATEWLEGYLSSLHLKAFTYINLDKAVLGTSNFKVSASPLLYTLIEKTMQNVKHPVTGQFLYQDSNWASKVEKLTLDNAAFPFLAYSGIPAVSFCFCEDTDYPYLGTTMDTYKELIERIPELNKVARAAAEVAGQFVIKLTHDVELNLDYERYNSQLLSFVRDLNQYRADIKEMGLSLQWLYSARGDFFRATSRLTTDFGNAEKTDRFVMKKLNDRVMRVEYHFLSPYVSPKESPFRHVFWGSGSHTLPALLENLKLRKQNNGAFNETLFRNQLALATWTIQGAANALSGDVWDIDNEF

- MFI [1]: 5.2
- BAE [2]: 2290
Compound: irrelevant antibody (anti-mouse IgG1) used as negative control

- CD71+ % [3]: 3.7%
- CD71- % [3]: 96.3%
- MFI [3]: 4.9
Compound: negative control antibody IgG1 (MAT002)

Compound: CC(C)C[C@H](NC(=O)[C@H](Cc1ccccc1)NC(=O)c1cnccn1)B(O)O [Velcade®, bortezomib]
- The number of mice that died before the end of the experiment ([4]; 8 mice per group, end at day 144, doses as in Table 4): 8
- day of death or of sacrifice due to pathological signs after injection of ARH-77 cells ([4]; 8 mice per group, antibodies 1.2 mg/mouse/inj twice weekly for 6 weeks, Velcade 0.5 mg/kg/inj twice weekly for 4 weeks): 27 day
- The survival median ([4]; doses as in Table 4): 29.5
- The survival average ([4]; only mice that died or were sacrificed before the end of the experiment, doses as in Table 4): 28.4 days
